Legend:
[1] = tested on: human pancreatic cancer cells; experiment: PDAC cell viability in combination with chemotherapeutics; type: cell-based; conditions: in vitro, chemotherapeutics including gemcitabine
Procedure: In vitro cell viability and death assays: Cell viability after treatment of Zt/g4-DM1, chemotherapeutics, and their combinations was determined by the MTT assay. Cell death was determined by the trypan blue exclusion assay.
FIGS. 10A to 10D are graphs that show the effect of Zt/g4-DM1 on pancreatic cancer cell cycle, viability, and apoptotic death. […] FIG. 12 are graphs that show synergism between Zt/g4-DM1 and chemotherapeutics by isobolograms.

[2] = tested on: HT29-Luc2 xenograft tumor; experiment: HT29-luc2 mouse xenograft tumor model; type: in vivo; conditions: for tumor growth inhibited: five injection regimen
Procedure: Athymic nude mice (five mice per group) were subcutaneously inoculated with 5×10^6 HCT116, HT29, and SW620 cells followed by injection of 20 mg/kg Zt/g4-DM1 through tail vein. FIG. 4A: Tumor growth from HT29-luc2 or HCT116-luc2 cells was determined by measuring average photon intensity (left panel). SW620-derived tumor growth was monitored by measuring tumor volume (FIG. 4B) (right panel). FIG. 4C: Tumor images with photon emission or caliper measurement at day 16 are presented. The scale from minimal to maximal is set at 300 to 35,000 photons per second. The percentages of inhibition were calculated from the average photon emission (for HT29 and HCT116 cells) or tumor volume (for SW620 cells). FIG. 4D: Individual tumors from different groups were weighed at day 28. The percentages of inhibition were calculated by a formula: (average tumor weight from Zt/g4-DM1 treated group/average tumor weight from control mice)×100%;
FIGS. 5A to 5F show the evaluation of different doses of Zt/g4-DM1 on tumor growth and RON expression. FIG. 5A: Effect of multi-dose of Zt/g4-DM1 on tumor growth was tested in HT29 cell-induced tumors. Tumor-bearing mice were treated with different doses of Zt/g4-DM1 every four days for a total of five injections ( ? ). Tumor growth was determined by the average bioluminescence intensity. FIG. 5B: An IC50 value based on the average bioluminescence intensity from individual groups at day 31 was calculated using GraphPad Prism 6 software. FIG. 5C: Bioluminescence images of individual tumors from each group at day 31 are shown. The percentages of inhibition were calculated from the average photon emission. The color scale from minimal to maximal is set at 300 to 35,000 photons per second. FIG. 5D: Individual tumors from different groups were collected and weighed at day 31, 35, and 43, respectively. The percentages of inhibition were calculated as detailed in FIG. 4C. FIG. 5E: Samples of HT29 cell-derived xenograft tumors from both control and 15 mg/kg Zt/g4-DM1-treated mice at day 31 were processed for histological examination. […] FIG. 5F: Western blot analysis of RON expression in tumors samples from both control and 15 mg/kg Zt/g4-DM1-treated mice. Densitometry analysis was performed to determine the levels of RON expression;
(§1) Mouse xenograft CRC model and anti-RON ADC treatment: All mice studies were approved by the institutional animal care committee. Female athymic nude mice at 6 weeks of age (Taconic, Cranbury, N.J.) were injected with 5×10^6 HT29-Luc2, HCT116-luc2, or SW620 cells in the subcutaneous space of the right flank as previously described (18,33). Mice were randomized into different groups (five mice per group). […] The single-dose group received a tail vein injection of 20 mg/kg Zt/g4-DM1 in 0.1 ml PBS followed by observation for 28 days. The multi-dose study was performed by treating mice with Zt/g4-DM1 at 1, 3, 7, 10, and 15 mg/kg every four days for a total of five injections. Bioluminescence from individual tumors was measured every four days using Caliper IVIS image system (PerkinElmer). Tumor volumes from SW620-derived tumors were measured according to a formula: V=pi/6×1.58×(length×width)^3/2 (18,33). Animals were euthanized when tumor volumes exceeded 2000 mm^3 or if tumors became necrotic or ulcerated through the skin.
The inventors first determined the efficacy of a single dose of Zt/g4-DM1 at 20 mg/kg body weight on tumors derived from HCT116, HT29, and SW620 cells. Tumor growth by HCT116-luc2 and HT29-luc2 cells was measured by bioluminescence emitted from tumor cells. SW620-mediated tumors were evaluated by tumor volume (18,34).

[3] = tested on: CRC cell-mediated tumor growth; experiment: Mouse xenograft CRC models, single dose, all three lines; type: in vivo; conditions: single dose 20 mg/kg
Procedure: as §1
The inventors first determined the efficacy of a single dose of Zt/g4-DM1 at 20 mg/kg body weight on tumors derived from HCT116, HT29, and SW620 cells. Tumor growth by HCT116-luc2 and HT29-luc2 cells was measured by bioluminescence emitted from tumor cells. SW620-mediated tumors were evaluated by tumor volume (18,34). […]

[4] = tested on: three CRC cell lines (HCT116, HT29, SW620); type: cell-based, human; set-up: cell death: dose or concentration left out as unconfirmed
Procedure: Cell viability was determined by the MTS assay. […] Morphological changes were observed under the Olympus BK-41 inverted microscope and photographed. […] FIG. 3D: Cell death percentages were determined by the trypan blue exclusion method.
(§2) Cell viability and death assays: Cell viability 72 h after Zt/g4-DM1 treatment was determined by the MTT assay (22). Viable or dead cells were determined by the trypan blue exclusion assay. A total of 900 cells were counted from three individual wells to reach the percentages of dead cells.

[5] = target: T1, RON on HCT116, HT29, and SW620 cells (Homo sapiens, UniProt Q04912); experiment: Flow cytometric binding to CRC cell lines; conditions: all three CRC cell lines, flow cytometry
T1 construct: We selected CRC cell lines LoVo, DLD1, HT29, HCT116, and SW620 expressing variable levels of RON as the cellular model; host or cells: HCT116, HT29, SW620
Procedure: FIG. 2B: Binding of Zt/g4-DM1 to human CRC cell lines: HCT116, HT29, and SW620 cells (1×10^5 cells) were incubated with 5 μg Zt/g4-DM1 or Zt/c1-DM1. Free Zt/g4 and Zt/c1 was used as the control. Fluorescence intensity from individual samples was determined by flow cytometric analysis.
The binding capacity of Zt/g4-DM1 to RON was determined by flow cytometric analysis.

three CRC cell lines = experiment: Cell viability, three CRC cell lines together; conditions: 72 h after treatment
Procedure: as §2

[6] = 15 mg/kg every four days x5, day 31

B1: Zt/g4-DM1: anti-RON mouse mAb Zt/g4 conjugated to maytansinoid DM1 via non-reducible thioether linkage (SMCC), DAR about 4:1 (conjugate)
VH: EVQLQQSGAELVKPGASVKLSCTTSGFNIIDTYIHWVNQKPDQGLEWIGRIDPADGNRKSDPKFQVKATITVDTSSNTAYLQLSSLTSGDTAVYYCARGYGNLNAMDSWGQGTSVTVSS
VL: DIQMNQSPSSLSASLGDTITITCHASQNINVWLNWYQQKPGNIPKLLIYKASNLHTGVPSRFSGSGSGTGFTLTISSLQPEDIATYYCQQGQSYPLTFGGGTKLEIK
- combination effect with chemotherapeutics on PDAC cell viability [1]: synergistic effect
- inhibition of tumor growth ([2]; 1 mg/kg every four days x5): no inhibition of tumor growth
- inhibition of tumor growth ([2]; 3 mg/kg every four days x5): no inhibition of tumor growth
- inhibition by average photon emission ([2]; 7 mg/kg every four days x5, day 19 to 43): more than 80%
- inhibition by tumor weight ([2]; 7 mg/kg every four days x5, day 43): Significant inhibition was still observed
- tumor growth inhibited ([2]; 7 mg/kg): more than 90%
- inhibition by average photon emission ([2]; 10 mg/kg every four days x5, day 31): More than 95%
- inhibition by tumor weight ([2]; 10 mg/kg every four days x5, day 43): Significant inhibition was still observed
- tumor growth inhibited ([2]; 10 mg/kg): more than 90%
- inhibition at average tumor weight [2, 6]: 90%
- inhibition by average photon emission [2, 6]: More than 95%
- average percentage of dead areas in a tumor mass ([2]; 15 mg/kg, day 31, H&E staining): 65%±7.4
- RON expression in treated tumors ([2]; 15 mg/kg, day 31, Western blot, control 100%): 16.44%±5.75
- tumor growth inhibited ([2]; 15 mg/kg): more than 90%
- IC50 dose (dose achieving 50% tumor inhibition) ([2]; multi-dose, average photons at day 31): 5.01 mg/kg
- inhibition by average bioluminescence intensity ([2]; single dose 20 mg/kg, day 16): More than 95%
- inhibition rate by average tumor weight ([2]; single dose 20 mg/kg, day 28): 50.98%
- duration of tumor growth delay [3]: up to 20 days
- duration of efficacy without signs of tumor regrowth ([3]; day 4 to day 16): up to 12 days
- IC50 cell death [4]: 5 to 7 µg/mL
- cell death ([4]; 72 h): More than 50%
- binding intensity compared with free Zt/g4 [5]: No difference in binding intensity
- reduction in cell viability (three CRC cell lines): More than 80%
